Results from patent US20170355769A1 (AbbVie / Abbott, published 2017).

T1: Human B7-H3-ECD (His tag) (human, UniProt Q5ZPR3 29-461)
T1 construct: SPR analyte; also called huB7-H3; soluble ECD of human B7-H3
T1 sequence: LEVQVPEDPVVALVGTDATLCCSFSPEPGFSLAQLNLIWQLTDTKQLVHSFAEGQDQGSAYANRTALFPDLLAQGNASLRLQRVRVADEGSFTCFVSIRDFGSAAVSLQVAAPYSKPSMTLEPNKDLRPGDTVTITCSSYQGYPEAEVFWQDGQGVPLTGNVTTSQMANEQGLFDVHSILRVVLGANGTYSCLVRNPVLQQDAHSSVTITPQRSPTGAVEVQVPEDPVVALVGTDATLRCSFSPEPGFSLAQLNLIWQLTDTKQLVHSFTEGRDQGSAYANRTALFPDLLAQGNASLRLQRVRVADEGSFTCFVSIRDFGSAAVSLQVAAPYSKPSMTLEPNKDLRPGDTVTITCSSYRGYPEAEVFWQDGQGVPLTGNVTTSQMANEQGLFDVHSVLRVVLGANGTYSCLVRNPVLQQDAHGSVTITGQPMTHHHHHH

T2: Human full length B7-H3 (human, UniProt Q5ZPR3 29-534)
T2 construct: On 3T12 fibroblasts expressing full length human B7-H3 or on NCI-H1650 cells; signal peptide residues 1-28 stated; also called huB7-H3; CD276
T2 sequence: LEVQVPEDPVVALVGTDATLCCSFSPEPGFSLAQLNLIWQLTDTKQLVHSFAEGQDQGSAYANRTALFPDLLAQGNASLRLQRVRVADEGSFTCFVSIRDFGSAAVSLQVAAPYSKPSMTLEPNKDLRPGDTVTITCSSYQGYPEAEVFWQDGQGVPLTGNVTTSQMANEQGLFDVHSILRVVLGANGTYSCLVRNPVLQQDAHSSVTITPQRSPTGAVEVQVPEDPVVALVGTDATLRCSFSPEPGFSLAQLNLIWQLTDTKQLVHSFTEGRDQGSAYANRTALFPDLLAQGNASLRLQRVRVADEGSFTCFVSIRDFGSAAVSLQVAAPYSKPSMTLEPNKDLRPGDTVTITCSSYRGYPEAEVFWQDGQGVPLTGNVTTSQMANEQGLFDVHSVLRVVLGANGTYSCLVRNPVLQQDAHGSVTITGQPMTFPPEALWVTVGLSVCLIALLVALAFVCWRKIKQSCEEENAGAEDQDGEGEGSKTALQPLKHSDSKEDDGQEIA


Target: T1, Human B7-H3-ECD (His tag)
Assay: SPR Biacore, naked mAb
Description: Biacore T200 SPR instruments were used to measure the binding kinetics of human B7-H3 (analyte) binding to various mAbs (ligands). The assay format was Fc-based capture via immobilized anti-mouse (Fc) (Pierce 31170) or immobilized anti-human (Fc) (Pierce 31125). A standard amine coupling protocol was employed to immobilize the capture reagents via primary amines to the carboxy-methyl (CM) dextran surface of CM5 sensorchips (Biacore); capture antibodies were coupled to a level of approximately 5000RU. For binding kinetic measurements the assay buffer was HBS-EP+ (Biacore): 10 mM Hepes, pH7.4, 150 mM NaCl, 3 mM EDTA, 0.05% polysorbate 20. During the assay, all measurements were referenced against the capture surface alone. Each assay cycle consisted of the following steps: 1) Capture of ligand to approximately 50RU; 2) Analyte injection over both reference and test surface, 240 μL at 80 μL/min, after which the dissociation was monitored for 900 seconds at 80 μL/min; 3) Regeneration of capture surface with low pH glycine. […] Data were processed and fit to a 1:1 binding model using Biacore T200 Evaluation Software to determine the binding kinetic rate constants, kₐ (on-rate) and kd (off-rate), and the equilibrium dissociation constant (affinity, KD).
(§1) The parental chAb18 from which the variants were derived was also tested as a comparator.

Kd | Binder
0.25 nM | huAb18v10 (antibody, V domains shown, humanized IgG) VH: EVQLVQSGAEVKKPGSSVKVSCKASGYSFTSYTIHWVRQAPGQGLEWMGYINPNSRNTDYAQKFQGRVTLTADKSTSTAYMELSSLRSEDTAVYYCARYSGSTPYWYFDVWGQGTTVTVSS VL: DIQLTQSPSFLSASVGDRVTITCRASSSVSYMNWYQQKPGKAPKPWIYATSNLASGVPSRFSVSGSGTEHTLTISSLQPEDFATYYCQQWSSNPLTFGQGTKLEIK
0.52 nM | huAb18v1 (antibody, V domains shown, humanized IgG) VH: EVQLVQSGAEVKKPGSSVKVSCKASGYSFTSYTIHWVRQAPGQGLEWMGYINPNSRNTDYNQKFKDRVTITADKSTSTAYMELSSLRSEDTAVYYCARYSGSTPYWYFDVWGQGTTVTVSS VL: DIQLTQSPSFLSASVGDRVTITCRASSSVSYMNWYQQKPGKAPKLLIYATSNLASGVPSRFSGSGSGTEFTLTISSLQPEDFATYYCQQWSSNPLTFGQGTKLEIK
0.57 nM | huAb18v4 (antibody, V domains shown, humanized IgG) VH: EVQLVQSGAEVKKPGSSVKVSCKASGYSFTSYTIHWVRQAPGQGLEWMGYINPNSRNTDYAQKFQGRVTLTADKSTSTAYMELSSLRSEDTAVYYCARYSGSTPYWYFDVWGQGTTVTVSS VL: DIQLTQSPSFLSASVGDRVTITCRASSSVSYMNWYQQKPGKSPKPWIYATSNLASGVPSRFSVSVSGTEHTLTISSLQPEDFATYYCQQWSSNPLTFGQGTKLEIK
0.69 nM | huAb18v2 (antibody, V domains shown, humanized IgG) VH: EVQLVQSGAEVKKPGSSVKVSCKASGYSFTSYTIHWVRQAPGQGLEWMGYINPNSRNTDYAQKFQGRVTLTADKSTSTAYMELSSLRSEDTAVYYCARYSGSTPYWYFDVWGQGTTVTVSS VL: DIQLTQSPSFLSASVGDRVTITCRASSSVSYMNWYQQKPGKAPKLLIYATSNLASGVPSRFSGSGSGTEFTLTISSLQPEDFATYYCQQWSSNPLTFGQGTKLEIK
0.23 nM | huAb18v3 (antibody, V domains shown, humanized IgG) VH: EVQLVQSGAEVKKPGSSVKVSCKASGYSFTSYTIHWVRQAPGQGLEWIGYINPNSRNTDYNQKFKDRTTLTADRSTSTAYMELSSLRSEDTAVYYCARYSGSTPYWYFDVWGQGTTVTVSS VL: DIQLTQSPSFLSASVGDRVTITCRASSSVSYMNWYQQKPGKSPKPWIYATSNLASGVPSRFSVSVSGTEHTLTISSLQPEDFATYYCQQWSSNPLTFGQGTKLEIK

Target: T2, Human full length B7-H3
Assay: FACS (Example 6 method)
Procedure: Cells were harvested from flasks when approximately 80% confluent using Gibco® Cell Dissociation Buffer. Cells were washed once in PBS/1% FBS (FACS buffer) then resuspended at 2.5×10⁶ cells/mL in FACS buffer. 100 μL of cells/well were added to a round bottom 96-well plate. 10 μL of a 10× concentration of mAb/ADC (final concentrations are indicated the figures). Wells were washed twice with FACS buffer and resuspended in 50 μL of secondary Ab (AlexaFluor 488) diluted in FACS buffer. The plate was incubated at 4° C. for one hour and washed twice with FACS buffer. Cells were resuspended in 100 μL of PBS/1% formaldehyde and analyzed on a Becton Dickinson LSRII flow cytometer. Data was analyzed using WinList flow cytometry analysis software.
as §1

Binder | EC50
huAb18v10-CZ (antibody, V domains shown, synthon CZ on reduced interchain Cys, ADC, DAR 2.7) VH: EVQLVQSGAEVKKPGSSVKVSCKASGYSFTSYTIHWVRQAPGQGLEWMGYINPNSRNTDYAQKFQGRVTLTADKSTSTAYMELSSLRSEDTAVYYCARYSGSTPYWYFDVWGQGTTVTVSS VL: DIQLTQSPSFLSASVGDRVTITCRASSSVSYMNWYQQKPGKAPKPWIYATSNLASGVPSRFSVSGSGTEHTLTISSLQPEDFATYYCQQWSSNPLTFGQGTKLEIK | 1.19 nM
huAb18v6-CZ (antibody, V domains shown, synthon CZ on reduced interchain Cys, ADC, DAR 3.4) VH: EVQLVQSGAEVKKPGSSVKVSCKASGYSFTSYTIHWVRQAPGQGLEWMGYINPNSRNTDYAQKFQGRVTLTADKSTSTAYMELSSLRSEDTAVYYCARYSGSTPYWYFDVWGQGTTVTVSS VL: EIVLTQSPDFQSVTPKEKVTITCRASSSVSYMNWYQQKPDQSPKLLIKATSNLASGVPSRFSGSGSGTDFTLTINSLEAEDAATYYCQQWSSNPLTFGQGTKLEIK | 2.09 nM
huAb18v1-CZ (antibody, V domains shown, synthon CZ on reduced interchain Cys, ADC, DAR 2.6) VH: EVQLVQSGAEVKKPGSSVKVSCKASGYSFTSYTIHWVRQAPGQGLEWMGYINPNSRNTDYNQKFKDRVTITADKSTSTAYMELSSLRSEDTAVYYCARYSGSTPYWYFDVWGQGTTVTVSS VL: DIQLTQSPSFLSASVGDRVTITCRASSSVSYMNWYQQKPGKAPKLLIYATSNLASGVPSRFSGSGSGTEFTLTISSLQPEDFATYYCQQWSSNPLTFGQGTKLEIK | 1.27 nM
huAb18v2-CZ (antibody, V domains shown, synthon CZ on reduced interchain Cys, ADC, DAR 1.8) VH: EVQLVQSGAEVKKPGSSVKVSCKASGYSFTSYTIHWVRQAPGQGLEWMGYINPNSRNTDYAQKFQGRVTLTADKSTSTAYMELSSLRSEDTAVYYCARYSGSTPYWYFDVWGQGTTVTVSS VL: DIQLTQSPSFLSASVGDRVTITCRASSSVSYMNWYQQKPGKAPKLLIYATSNLASGVPSRFSGSGSGTEFTLTISSLQPEDFATYYCQQWSSNPLTFGQGTKLEIK | 2.25 nM

The remaining lines, values ahead:

EC50 | Binder
0.9 nM | huAb18v4-CZ (antibody, V domains shown, synthon CZ on reduced interchain Cys, ADC, DAR 2.5) VH: EVQLVQSGAEVKKPGSSVKVSCKASGYSFTSYTIHWVRQAPGQGLEWMGYINPNSRNTDYAQKFQGRVTLTADKSTSTAYMELSSLRSEDTAVYYCARYSGSTPYWYFDVWGQGTTVTVSS VL: DIQLTQSPSFLSASVGDRVTITCRASSSVSYMNWYQQKPGKSPKPWIYATSNLASGVPSRFSVSVSGTEHTLTISSLQPEDFATYYCQQWSSNPLTFGQGTKLEIK
1.98 nM | huAb18v8-CZ (antibody, V domains shown, synthon CZ on reduced interchain Cys, ADC, DAR 2.6) VH: EVQLVQSGAEVKKPGSSVKVSCKASGYSFTSYTIHWVRQAPGQGLEWIGYINPNSRNTDYNQKFKDRTTLTADRSTSTAYMELSSLRSEDTAVYYCARYSGSTPYWYFDVWGQGTTVTVSS VL: DIQLTQSPSFLSASVGDRVTITCRASSSVSYMNWYQQKPGKAPKPWIYATSNLASGVPSRFSVSGSGTEHTLTISSLQPEDFATYYCQQWSSNPLTFGQGTKLEIK
1.58 nM | huAb18v9-CZ (antibody, V domains shown, synthon CZ on reduced interchain Cys, ADC, DAR 2.4) VH: EVQLVQSGAEVKKPGSSVKVSCKASGYSFTSYTIHWVRQAPGQGLEWIGYINPNSRNTDYNQKFKDRTTLTADRSTSTAYMELSSLRSEDTAVYYCARYSGSTPYWYFDVWGQGTTVTVSS VL: EIVLTQSPDFQSVTPKEKVTITCRASSSVSYMNWYQQKPDQSPKPWIYATSNLASGVPSRFSVSVSGTDHTLTINSLEAEDAATYYCQQWSSNPLTFGQGTKLEIK
1.27 nM | huAb18v3-CZ (antibody, V domains shown, synthon CZ on reduced interchain Cys, ADC, DAR 2.4) VH: EVQLVQSGAEVKKPGSSVKVSCKASGYSFTSYTIHWVRQAPGQGLEWIGYINPNSRNTDYNQKFKDRTTLTADRSTSTAYMELSSLRSEDTAVYYCARYSGSTPYWYFDVWGQGTTVTVSS VL: DIQLTQSPSFLSASVGDRVTITCRASSSVSYMNWYQQKPGKSPKPWIYATSNLASGVPSRFSVSVSGTEHTLTISSLQPEDFATYYCQQWSSNPLTFGQGTKLEIK
1.92 nM | huAb18v7-CZ (antibody, V domains shown, synthon CZ on reduced interchain Cys, ADC, DAR 4.3) VH: EVQLVQSGAEVKKPGSSVKVSCKASGYSFTSYTIHWVRQAPGQGLEWMGYINPNSRNTDYAQKFQGRVTLTADKSTSTAYMELSSLRSEDTAVYYCARYSGSTPYWYFDVWGQGTTVTVSS VL: EIVLTQSPDFQSVTPKEKVTITCRASSSVSYMNWYQQKPDQSPKPWIYATSNLASGVPSRFSVSVSGTDHTLTINSLEAEDAATYYCQQWSSNPLTFGQGTKLEIK
2.91 nM | huAb18v5-CZ (antibody, V domains shown, synthon CZ on reduced interchain Cys, ADC, DAR 3.4) VH: EVQLVQSGAEVKKPGSSVKVSCKASGYSFTSYTIHWVRQAPGQGLEWMGYINPNSRNTDYNQKFKDRVTITADKSTSTAYMELSSLRSEDTAVYYCARYSGSTPYWYFDVWGQGTTVTVSS VL: EIVLTQSPDFQSVTPKEKVTITCRASSSVSYMNWYQQKPDQSPKLLIKATSNLASGVPSRFSGSGSGTDFTLTINSLEAEDAATYYCQQWSSNPLTFGQGTKLEIK
